From patent US20240352102A1 (UNITED STATES GOVERNMENT AS REPRESENTED BY THE DEPARTMENT …, published 2024)

Legend:
[1] = molecular target: T1, Peptide_087; experiment: peptide microarray
T1 peptide: HKLTFRENAKAKTDH

[2] = molecular target: T2, Peptide_089; experiment: peptide microarray
T2 peptide: AKAKTDHGAEIVYKS

[3] = molecular target: T3, Peptide_084; experiment: peptide microarray
T3 peptide: HVPGGGNKKIETHKL

[4] = molecular target: T4, Peptide_076; experiment: peptide microarray
T4 peptide: HKPGGGQVEVKSEKL

[5] = molecular target: T5, Peptide_091; experiment: peptide microarray
T5 peptide: AEIVYKSPVVSGDTS

[6] = molecular target: T6, Peptide_078; experiment: peptide microarray
T6 peptide: EVKSEKLDFKDRVQS

[7] = molecular target: T7, Peptide_093; experiment: peptide microarray
T7 peptide: VVSGDTSPRHLSNVS

[8] = molecular target: T8, Peptide_080; experiment: peptide microarray
T8 peptide: FKDRVQSKIGSLDNI

[9] = molecular target: T9, Peptide_083; experiment: peptide microarray
T9 peptide: DNITHVPGGGNKKIE

[10] = molecular target: T10, Peptide_097; experiment: peptide microarray
T10 peptide: TGSIDMVDSPQLATL

[11] = molecular target: T11, Peptide_075; experiment: peptide microarray
T11 peptide: GNIHHKPGGGQVEVK

[12] = molecular target: T12, Peptide_101; experiment: peptide microarray
T12 peptide: TLADEVSASLAKQGL

[13] = molecular target: T13, Peptide_079; experiment: peptide microarray
T13 peptide: EKLDFKDRVQSKIGS

[14] = molecular target: T14, Peptide_095; experiment: peptide microarray
T14 peptide: RHLSNVSSTGSIDMV

[15] = molecular target: T15, Peptide_082; experiment: peptide microarray
T15 peptide: IGSLDNITHVPGGGN

[16] = molecular target: T16, Peptide_094; experiment: peptide microarray
T16 peptide: DTSPRHLSNVSSTGS

[17] = molecular target: T17, Peptide_090; experiment: peptide microarray
T17 peptide: TDHGAEIVYKSPVVS

[18] = molecular target: T18, Peptide_086; experiment: peptide microarray
T18 peptide: KIETHKLTFRENAKA

[19] = molecular target: T19, Peptide_100; experiment: peptide microarray
T19 peptide: ATLADEVSASLAKQG

[20] = molecular target: T20, Peptide_096; experiment: peptide microarray
T20 peptide: NVSSTGSIDMVDSPQ

[21] = molecular target: T21, Peptide_077; experiment: peptide microarray
T21 peptide: GGQVEVKSEKLDFKD

[22] = molecular target: T22, Peptide_092; experiment: peptide microarray
T22 peptide: YKSPVVSGDTSPRHL

[23] = molecular target: T23, Peptide_088; experiment: peptide microarray
T23 peptide: FRENAKAKTDHGAEI

[24] = molecular target: T24, Peptide_081; experiment: peptide microarray
T24 peptide: VQSKIGSLDNITHVP

[25] = molecular target: T25, Peptide_023; experiment: peptide microarray
T25 peptide: AAGHVTQARMVSKSK

[26] = molecular target: T26, Peptide_002; experiment: peptide microarray
T26 peptide: RQEFEVMEDHAGTYG

[27] = molecular target: T27, Peptide_033; experiment: peptide microarray
T27 peptide: APPGQKGQANATRIP

[28] = molecular target: T28, Peptide_005; experiment: peptide microarray
T28 peptide: TYGLGDRKDQGGYTM

[29] = molecular target: T29, Peptide_021; experiment: peptide microarray
T29 peptide: DTPSLEDEAAGHVTQ

[30] = molecular target: T30, Peptide_007; experiment: peptide microarray
T30 peptide: DQGGYTMHQDQEGDT

[31] = molecular target: T31, recombinant human tau incubated with poly(A) RNA (human, UniProt P10636-7 1-412, limits assumed); experiment: dot blot, 20 ng tau, 8 replicates, reference heparin incubated tau
T31 construct: Oligomeric complex with RNA; also called tau/RNA complexes; TRCs
T31 sequence (P10636 other isoform, or with tags, fused parts or gaps limits assumed): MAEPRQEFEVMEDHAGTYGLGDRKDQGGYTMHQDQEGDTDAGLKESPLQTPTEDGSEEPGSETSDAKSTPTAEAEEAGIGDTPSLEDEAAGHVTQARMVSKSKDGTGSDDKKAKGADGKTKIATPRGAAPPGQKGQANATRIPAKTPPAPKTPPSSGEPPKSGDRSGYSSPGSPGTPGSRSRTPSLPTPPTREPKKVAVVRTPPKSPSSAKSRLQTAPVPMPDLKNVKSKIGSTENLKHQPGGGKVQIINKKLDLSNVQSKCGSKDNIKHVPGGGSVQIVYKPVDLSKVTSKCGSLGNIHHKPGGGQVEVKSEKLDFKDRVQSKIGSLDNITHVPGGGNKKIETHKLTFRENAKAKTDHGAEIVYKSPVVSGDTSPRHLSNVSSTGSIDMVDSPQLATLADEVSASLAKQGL
Method: To control for other polyanions inducing the TRC35+ tau conformation, recombinant protein was purified from E. coli overexpressing human tau. Twenty ng of purified tau proteins was incubated with poly(A) RNA or Heparin as shown in representative blots above. In total, 8 replicate samples were dot blotted with mAb TRC35 (FIG. 11A) and SP70 total tau mAb (FIG. 11B) as previously described for FIG. 1.

[32] = molecular target: T32, Alzheimer's disease tau (ADtau) fibrillar material (human, UniProt P10636-8 2-441, limits assumed, pathological tau with phosphorylation (pS422 detected); sites otherwise not stated); experiment: native dot blot densitometry, 20 ng per dot, reference recombinant tau
T32 construct: Aggregated, brain-derived material; also called detergent insoluble pathological tau purified from Alzheimer's disease brain tissue; Alzheimer's disease derived tau
T32 sequence (P10636 other isoform, or with tags, fused parts or gaps limits assumed): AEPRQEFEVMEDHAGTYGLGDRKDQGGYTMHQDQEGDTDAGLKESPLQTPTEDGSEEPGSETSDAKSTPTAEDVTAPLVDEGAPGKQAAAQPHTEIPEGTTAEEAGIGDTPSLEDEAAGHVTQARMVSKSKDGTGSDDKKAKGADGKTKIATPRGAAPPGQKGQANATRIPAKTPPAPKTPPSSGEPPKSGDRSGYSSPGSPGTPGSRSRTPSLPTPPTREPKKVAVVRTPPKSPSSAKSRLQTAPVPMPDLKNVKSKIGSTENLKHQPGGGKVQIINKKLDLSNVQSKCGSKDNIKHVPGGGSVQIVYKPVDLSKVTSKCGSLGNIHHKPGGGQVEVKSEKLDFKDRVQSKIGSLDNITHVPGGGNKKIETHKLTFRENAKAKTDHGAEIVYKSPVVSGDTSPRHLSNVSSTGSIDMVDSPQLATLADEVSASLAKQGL
Method: Shown is a native protein dot blot loaded with equivalent mass of E. coli derived recombinant tau (top row, 20 ng) or Alzheimer's disease derived tau (ADtau) (bottom row, 20 ng). […] C57BL/6 (B6) mouse immunostaining included as controls. Insets depict TRC35 immunoreactivity at higher magnification in the CA1. Scale bar=500 um at low power magnification and 50 μm in the insets.
Characterization of TRC35 monoclonal antibodies. TRC35 monoclonal antibodies were used to dot blot equivalent amounts (20 ng) E. coli-expressed native recombinant tau protein and Alzheimer's disease tau (ADtau) fibrillar material. […] Protein preparations were not denatured prior to blotting to preserve native conformations expected of a conformation dependent monoclonal antibody. Dot blots were performed using the Bio-Dot Microfiltration Apparatus as recommended by the manufacturer (Bio-Rad, catalog #170-6545). Membranes were blocked in blocking solution [20 mM Tris, 500 mM NaCl, 1% bovine serum albumin (w/v) | and probed with TRC35 at 1:50,000 as primary antibody in TTBS buffer [20 mM Tris, 500 mM NaCl, 1% bovine serum albumin (w/v), 0.5% (w/v) Tween20]. Blots were washed 3 times in TTBS to remove excess primary antibody. […] Immunoreactivity was measured using Clarity Western ECL reagents (Bio-Rad) Images were scanned and quantitated using LI-COR Image Studio software.

binding result [1]: no binding (tested: 1 ug/ml)
binding result [2]: no binding (tested: 1 ug/ml)
binding result [3]: no binding (tested: 1 ug/ml)
binding result [4]: no binding (tested: 1 ug/ml)
binding result [5]: no binding (tested: 1 ug/ml)
binding result [6]: no binding (tested: 1 ug/ml)
binding result [7]: no binding (tested: 1 ug/ml)
binding result [8]: no binding (tested: 1 ug/ml)
binding result [9]: no binding (tested: 1 ug/ml)
binding result [10]: no binding (tested: 1 ug/ml)
binding result [11]: no binding (tested: 1 ug/ml)
binding result [12]: no binding (tested: 1 ug/ml)
binding result [13]: no binding (tested: 1 ug/ml)
binding result [14]: no binding (tested: 1 ug/ml)
binding result [15]: no binding (tested: 1 ug/ml)
binding result [16]: no binding (tested: 1 ug/ml)
binding result [17]: no binding (tested: 1 ug/ml)
binding result [18]: no binding (tested: 1 ug/ml)
binding result [19]: no binding (tested: 1 ug/ml)
binding result [20]: no binding (tested: 1 ug/ml)
binding result [21]: no binding (tested: 1 ug/ml)
binding result [22]: no binding (tested: 1 ug/ml)
binding result [23]: no binding (tested: 1 ug/ml)
binding result [24]: no binding (tested: 1 ug/ml)
binding result [25]: no binding (tested: 1 ug/ml)
binding result [26]: no binding (tested: 1 ug/ml)
binding result [27]: no binding (tested: 1 ug/ml)
binding result [28]: no binding (tested: 1 ug/ml)
binding result [29]: no binding (tested: 1 ug/ml)
binding result [30]: no binding (tested: 1 ug/ml)
fold TRC35 signal normalized to SP70, relative to heparin [31]: ~2 fold
fold selectivity for ADtau over native tau [32]: 8 fold
B1: mAb TRC35 (antibody, V domains shown)
VH: QVQLQQPGTELVKPGASVKLSCKASGYTFTSYWLQWVKQRPGQGLEWIGEIDPSDSYTNYNQKFKGKATLTVDTSSSTAYMQLSSLTSEDSAVYYCATLTGSWGQGTTLAVSS
VL: DVLLTQTPLSLPVSLGDQASISCRASQSIVDSNGNTFLEWYLQKSGQSPKVLIYKVSNRFSGVPDRFSGRGSGTDFTLKISRVEAEDLGVYYCFQGSHVPYTFGGGTKLEIK
notes: Mouse hybridoma monoclonal antibody raised in tau knockout mice against tau/poly(A) RNA complexes; IgG1 isotype, kappa light chain; also called TRC35 monoclonal antibody; hybridoma clone #35
